Measurements: PMC9482650, “Quantitative fragmentomics allow affinity mapping of interactomes” (Nature Communications, 2022)

Experiments:
Assay in all cases: holdup assay
Set-up in all cases: key: below the threshold = too weak to quantify, mostly under pKd 3.1 to 4
[1] = biological target: AHNAK1, Q09666
[2] = biological target: T1, APBA2_1, Q99767
T1 sequence (Q99767 563-664, limits assumed, looked up): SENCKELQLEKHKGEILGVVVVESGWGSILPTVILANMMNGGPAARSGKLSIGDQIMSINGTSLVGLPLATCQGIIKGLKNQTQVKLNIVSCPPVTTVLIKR

[3] = biological target: T2, APBA3_1, O96018
T2 sequence (O96018 389-490, limits assumed, looked up): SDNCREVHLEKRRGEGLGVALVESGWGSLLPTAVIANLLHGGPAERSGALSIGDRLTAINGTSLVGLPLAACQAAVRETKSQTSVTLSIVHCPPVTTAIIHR

[4] = biological target: T3, ARHGEF11, O15085
T3 sequence (O15085 42-136, limits assumed, looked up): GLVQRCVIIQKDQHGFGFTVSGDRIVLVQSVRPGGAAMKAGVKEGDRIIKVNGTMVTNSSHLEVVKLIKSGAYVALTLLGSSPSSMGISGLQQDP

[5] = biological target: DLG2_3, Q15700
[6] = biological target: T4, DLG3_1, Q92796
T4 sequence (Q92796 125-227, limits assumed, looked up): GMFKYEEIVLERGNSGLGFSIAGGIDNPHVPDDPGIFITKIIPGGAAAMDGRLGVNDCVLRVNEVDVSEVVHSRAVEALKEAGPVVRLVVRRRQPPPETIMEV

[7] = biological target: DLG5_1, Q8TDM6
DLG5_1, Q8TDM6, sequence (Q8TDM6 617-713): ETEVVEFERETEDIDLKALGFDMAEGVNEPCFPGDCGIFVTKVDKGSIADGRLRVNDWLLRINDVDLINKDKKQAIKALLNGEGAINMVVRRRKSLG

[8] = biological target: T5, DVL3, Q92997
T5 sequence (Q92997 244-331, limits assumed, looked up): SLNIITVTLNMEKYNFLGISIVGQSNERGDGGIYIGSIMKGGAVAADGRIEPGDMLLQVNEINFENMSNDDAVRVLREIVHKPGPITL

[9] = biological target: FRMPD2_1, Q68DX3
FRMPD2_1, Q68DX3, sequence (Q68DX3 770-861): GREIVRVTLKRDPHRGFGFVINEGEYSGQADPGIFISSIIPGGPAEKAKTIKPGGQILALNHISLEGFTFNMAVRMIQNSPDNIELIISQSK

[10] = biological target: FRMPD2_3, Q68DX3
FRMPD2_3, Q68DX3, sequence (Q68DX3 1073-1166): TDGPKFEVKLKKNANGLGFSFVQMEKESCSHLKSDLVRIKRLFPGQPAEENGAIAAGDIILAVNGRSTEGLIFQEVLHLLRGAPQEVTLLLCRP

[11] = biological target: GRIP2_6, Q9C0E4
GRIP2_6, Q9C0E4, sequence (Q9C0E4 648-740): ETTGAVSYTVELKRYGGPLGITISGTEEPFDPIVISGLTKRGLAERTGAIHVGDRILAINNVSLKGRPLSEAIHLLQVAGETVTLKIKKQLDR

[12] = biological target: HTRA2, O43464
HTRA2, O43464, sequence (O43464 355-458): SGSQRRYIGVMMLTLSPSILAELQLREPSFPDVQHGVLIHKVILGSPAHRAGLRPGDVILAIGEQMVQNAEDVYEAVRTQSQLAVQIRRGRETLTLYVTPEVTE

[13] = biological target: IL16_4, Q14005
IL16_4, Q14005, sequence (Q14005 1229-1329): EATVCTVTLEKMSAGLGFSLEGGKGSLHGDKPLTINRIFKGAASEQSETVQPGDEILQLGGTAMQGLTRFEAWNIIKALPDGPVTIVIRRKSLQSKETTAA

[14] = biological target: LAP2, Q96RT1
LAP2, Q96RT1, sequence (Q96RT1 other isoform, or with tags, fused parts or gaps): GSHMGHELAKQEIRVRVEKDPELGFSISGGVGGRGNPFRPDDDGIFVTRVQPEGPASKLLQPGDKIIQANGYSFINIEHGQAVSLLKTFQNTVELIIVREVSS

[15] = biological target: T6, LRRC7, Q96NW7
T6 sequence (Q96NW7 1440-1537, limits assumed, looked up): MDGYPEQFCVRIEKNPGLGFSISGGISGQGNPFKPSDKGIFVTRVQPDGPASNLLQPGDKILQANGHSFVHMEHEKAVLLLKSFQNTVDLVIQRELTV

[16] = biological target: MAGI2_6, Q86UL8
MAGI2_6, Q86UL8, sequence (Q86UL8 1141-1229): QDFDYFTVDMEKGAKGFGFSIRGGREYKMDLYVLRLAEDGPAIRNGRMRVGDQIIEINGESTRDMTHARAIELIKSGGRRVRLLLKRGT

[17] = biological target: T7, MPP6, Q9NZW5
T7 sequence (Q9NZW5 125-219, limits assumed, looked up): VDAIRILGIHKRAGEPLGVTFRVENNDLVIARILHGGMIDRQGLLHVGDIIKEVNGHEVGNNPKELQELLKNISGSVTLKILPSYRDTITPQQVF

[18] = biological target: T8, MPP7, Q5T2T1
T8 sequence (Q5T2T1 134-230, limits assumed, looked up): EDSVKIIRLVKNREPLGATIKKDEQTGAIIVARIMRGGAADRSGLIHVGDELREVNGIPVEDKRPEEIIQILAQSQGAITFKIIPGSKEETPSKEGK

[19] = biological target: PARD3_3, Q8TEW0
PARD3_3, Q8TEW0, sequence (Q8TEW0 582-685): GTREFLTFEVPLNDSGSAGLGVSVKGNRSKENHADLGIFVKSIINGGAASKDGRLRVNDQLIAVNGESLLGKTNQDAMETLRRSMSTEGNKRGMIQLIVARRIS

[20] = biological target: T9, PDZD2_2, O15018
T9 sequence (O15018 329-429, limits assumed, looked up): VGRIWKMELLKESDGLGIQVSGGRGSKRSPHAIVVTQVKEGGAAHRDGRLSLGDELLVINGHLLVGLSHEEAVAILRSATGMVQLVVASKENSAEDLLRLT

[21] = biological target: T10, PTPN13_1, Q12923
T10 sequence (Q12923 1088-1188, limits assumed, looked up): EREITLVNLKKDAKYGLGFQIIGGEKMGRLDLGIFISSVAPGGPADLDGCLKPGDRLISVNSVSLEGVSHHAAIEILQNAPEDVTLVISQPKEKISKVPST

[22] = biological target: T11, RAPGEF6, Q8TEU7
T11 sequence (Q8TEU7 525-625, limits assumed, looked up): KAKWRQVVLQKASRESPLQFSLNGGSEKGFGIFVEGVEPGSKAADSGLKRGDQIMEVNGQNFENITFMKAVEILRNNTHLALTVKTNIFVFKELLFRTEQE

[23] = biological target: T12, SNTA1, Q13424
T12 sequence (Q13424 82-180, limits assumed, looked up): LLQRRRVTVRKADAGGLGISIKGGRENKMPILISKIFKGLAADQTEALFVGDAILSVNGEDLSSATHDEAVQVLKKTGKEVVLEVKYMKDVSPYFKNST

[24] = biological target: T13, SNTB1, Q13884
T13 sequence (Q13884 107-205, limits assumed, looked up): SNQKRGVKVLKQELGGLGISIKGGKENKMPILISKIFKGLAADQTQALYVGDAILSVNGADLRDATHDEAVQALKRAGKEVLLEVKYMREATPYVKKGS

[25] = biological target: SNX27, Q96L92
[26] = plain residues with an end cap or a label only (N-terminal biotin on a linker: ttds)
[27] = plain residues with an end cap or a label only (N-terminal biotin on a linker: ado-ado)

AHNAK1, Q09666, sequence (Q09666 4-100): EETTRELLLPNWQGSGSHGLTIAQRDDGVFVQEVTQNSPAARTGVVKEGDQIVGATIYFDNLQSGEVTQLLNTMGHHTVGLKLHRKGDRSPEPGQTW

Binder: LCALPKVTTV [AGMAT, Q9BSE5]
- pKd [1, 26]: below the threshold
- pKd [2, 26]: below the threshold
- pKd [3, 26]: below the threshold
- pKd [4, 26]: 4.52
- pKd [5, 26]: 4.64
- pKd [6, 26]: 4.27
- pKd [7, 26]: below the threshold
- pKd [8, 26]: below the threshold
- pKd [9, 26]: below the threshold
- pKd [10, 26]: below the threshold
- pKd [11, 26]: below the threshold
- pKd [12, 26]: 3.8
- pKd [13, 26]: below the threshold
- pKd [14, 26]: 3.61
- pKd [15, 26]: 3.63
- pKd [16, 26]: 4.64
- pKd [17, 26]: 3.54
- pKd [18, 26]: below the threshold
- pKd [19, 26]: 3.62
- pKd [20, 26]: 4.44
- pKd [21, 26]: below the threshold
- pKd [22, 26]: 3.63
- pKd [23, 26]: 4.81
- pKd [24, 26]: 4.73
- pKd [25, 26]: 4.43

Binder: TETASVCTKV [SLC23A1, Q9UHI7]
- pKd [1, 27]: below the threshold
- pKd [2, 27]: below the threshold
- pKd [3, 27]: below the threshold
- pKd [4, 27]: 4.24
- pKd [5, 27]: below the threshold
- pKd [6, 27]: below the threshold
- pKd [7, 27]: below the threshold
- pKd [8, 27]: below the threshold
- pKd [9, 27]: 3.76
- pKd [10, 27]: below the threshold
- pKd [11, 27]: below the threshold
- pKd [12, 27]: below the threshold
- pKd [13, 27]: 3.55
- pKd [14, 27]: 3.74
- pKd [15, 27]: below the threshold
- pKd [16, 27]: 3.69
- pKd [17, 27]: 3.87
- pKd [18, 27]: below the threshold
- pKd [19, 27]: below the threshold
- pKd [20, 27]: 4.12
- pKd [21, 27]: below the threshold
- pKd [22, 27]: below the threshold
- pKd [23, 27]: 4
- pKd [24, 27]: 4.17
- pKd [25, 27]: 4.85

Binder: RTRQRNETQV [HPV51-E6, P26554]
- pKd [1, 26]: below the threshold
- pKd [2, 26]: below the threshold
- pKd [3, 26]: below the threshold
- pKd [4, 26]: 3.69
- pKd [5, 26]: 4.75
- pKd [6, 26]: 4.28
- pKd [7, 26]: below the threshold
- pKd [8, 26]: below the threshold
- pKd [9, 26]: below the threshold
- pKd [10, 26]: below the threshold
- pKd [11, 26]: below the threshold
- pKd [12, 26]: below the threshold
- pKd [13, 26]: below the threshold
- pKd [14, 26]: 3.69
- pKd [15, 26]: below the threshold
- pKd [16, 26]: below the threshold
- pKd [17, 26]: below the threshold
- pKd [18, 26]: below the threshold
- pKd [19, 26]: below the threshold
- pKd [20, 26]: 3.58
- pKd [21, 26]: below the threshold
- pKd [22, 26]: below the threshold
- pKd [23, 26]: 4.23
- pKd [24, 26]: 4.09
- pKd [25, 26]: 4.85
